In patent publication US20050255113A1, “Methods and compositions for inhibiting polypeptide accumulation associated with neurological disorders” (New York State Department of Health and Abgenix, Inc., priority 1999, published 2005):

Key:
[1] = test system: HD-72Q-GFP protein expression; experiment: Immunoblot of HD-72Q-GFP protein expression in co-transfections; assay type: cell-based; details: 5:1 co-transfections, 24 hours, different transfection paradigms
Description: (§1) Some aggregates are found in 104Q co-transfections (never in 25Q), often in cells not expressing C4 (arrowheads), but in some dually-transfected cells as well (arrow). […] Cell lysates were collected from 5:1 co-transfections (sFv:HD-72Q-GFP) in duplicate at 24 hours (prior to prominent aggregate formation and loss of HD-72Q-GFP to the insoluble compartment) and subjected to SDS-PAGE. The membrane was probed with 1:1000 […] primary antibody (Quantum), stripped and reprobed with 1:500 anti-actin antibody (Sigma). HD-72Q-GFP bands were of similar intensity after detection by HRP-conjugated secondary antibody and chemiluminescence.
(§2) The typical intrabody constructs were fused to a C-terminal hemagglutinin (HA) peptide tag to facilitate immunodetection of the protein, while keeping the protein localized to the cytosol. […] The diffuse labeling was also characteristic of the normal length (25Q) construct, with or without intrabody co-transfection (FIG. 15).

GST-DRPLA-35Q = biological target: T1, GST-DRPLA-35Q (Homo sapiens, UniProt P54259, DUP487-502); experiment: Affinity purification of sFv with GST-fusion antigens (glutathione-Sepharose, SDS-PAGE, immunoblot); assay type: binding; details: 3 μg sFv with 4 μg antigen, 1 hr room temperature
T1 construct: made in house; host or cells: E. coli BL21
Description: (§3) About 3 ug of N-HD-C4 sFv was mixed with 4 ug of either GST-DRPLA-Q35 or GST-HD-Q25 or GST-HD-Q42 in PBS (200 μl final volume) and rocked for 1 h at RT. Twenty microliters of glutathione Sepharose 4B beads (50% slurry, pre-washed with PBS) was added and incubated for another 30 min at RT to capture the sFv/GST fusion protein complexes. The beads were harvested by centrifugation at 12,000×g for 10 sec and washed thrice with 1 ml PBS. The complexes were eluted with 10 μl of 50 mM Tris pH 8.0 containing 10 mM reduced glutathione for 10 min at RT. Tubes were then centrifuged at 12,000×g for 1 min and the supernatants containing the soluble complexes were transferred to new tubes, mixed with an equal volume of 2× SDS-sample buffer and heated at 95° C. before being loaded on SDS-PAGE.
(§4) About 3 μg of each clone were incubated in solution for 1 hour at room temperature with 4 ug of either GST-DRPLA-Q35, GST-HD-Q25 or GST-HD-Q42. Then, a 10 μl bed volume of glutathione-Sepharose 4B (Pharmacia) was added to each tube to precipitate the GST-fusion protein/sFv complexes. After 30 min incubation, tubes were centrifuged and the pellets washed 3 times with 1 ml PBS. The complexes were eluted from glutathione-Sepharose beads by addition of 10 mM reduced glutathione to the pellets.
(§5) After centrifugation, supernatants containing the eluted complexes were transferred to new tubes and mixed with an equal volume of 2× SDS-loading buffer. The samples were boiled and the proteins separated on a 12% SDS-PAGE. Protein bands were visualized by Coomassie blue staining, and/or transferred to nitrocellulose membranes in order to detect the sFv molecules by immunoblot.
(§6) The binding specificities of the selected sFv clones were tested by affinity binding to a full range of antigens, as follows: (a) using sample numbers that correspond to the experimental results in FIGS. 9 and 10, about 3 μg of α-Nt-HD-C4 sFv clone 1 (lanes 2-4) or α-Nt-HD-C4 sFv clone 2 (lanes 5-7) were mixed with 4 μg of the following antigens and incubated in solution for 1 hr at room temperature (lanes 2 and 5) GST-DRPLA-35Q, (lanes 3 and 6) GST-HD-25Q, (4 and 7) GST-HD-42Q; (b) a 10 μl bed volume of glutathione-Sepharose 4B (Pharmacia) was added to each tube to bind all GST-containing protein complexes; the beads were washed with 10 mM glutathione solution, which eluted the GST-antigen or the sFv-antigen complex, and these eluates were analyzed by SDS-PAGE. Protein bands were visualized by Coomassie blue staining (FIG. 9) and were also transferred to nitrocellulose membranes in order to detect the sFv molecules by immunoblot blot (FIG. 10).

GST-HD-25Q, GST-HD-42Q = experiment: as above; assay type: binding; details: 3 μg sFv with 4 μg antigen, 1 hr room temperature; Coomassie and immunoblot
Description: as §3, §4, §5, §6

[2] = test system: HD-polyQ72-GFP or HD-Q104-GFP in BHK cells; experiment: Double label immunofluorescence of BHK cells co-transfected with C4 sFv and HD-polyQ-GFP; assay type: cell-based; details: 5:1 C4:HD-polyQ-GFP
Description: as §1, §2

[3] = test system: model huntingtin polypeptide (HD-25Q-GFP, pHD-104Q-GFP, HD-Q104-myc, GFP-HD-Q104); experiment: Intrabody retargeting of model huntingtin polypeptide in co-transfected COS-7 cells (immunofluorescence); assay type: cell-based; details: co-transfected mammalian cells
Description: COS 7 cells were grown on cover glass in 6-well plates (10^5 cells/well) and co-transfected at a ratio of 3:1 (sFv to target) with plasmids containing either N-HD-C4 sFv or a negative control sFv (containing an HA tag and SV40 nuclear localization sequence (NLS)) and plasmids containing GFP-targeted fusion proteins using 5 μl SuperFect transfection reagent (QIAGEN). At 24 hours post-transfection, cells were prepared for immunofluorescence as follows: cells were fixed with 4% paraformaldehyde and permeabilized with 0.2% triton-X100. To prevent non-specific binding of secondary antibodies, cells were blocked with 10% normal goat serum in 3% BSA.
The assay is designed such that both the target antigen, i.e., the model huntingtin polypeptide, and the intrabody can be visualized. In particular, the huntingtin polypeptide is visualized by detecting fluorescence emitted by the GFP domain of the huntingtin-GFP fusion polypeptide and the intrabodies tested are visualized using a rhodamine-conjugated antibody that can specifically bind to the intrabody.
The model HD target polypeptide was fused to c-myc (EQKLISEEDL (SEQ ID NO: 45)) epitope tag (HD-Q104-myc). The intrabodies sequences were fused to a HA tag and a SV40 nuclear localization signal (sFv-HA-NLS), so that bound antigens should be retargeted to the cell nuclei. At 48 hours post-transfection, cells were fixed and permeabilized. The HD-Q104-myc proteins were detectable using anti-myc epitope antibodies (i.e., MAb 9E10 IgG), followed by FITC-labeled goat anti-mouse IgG. The sFv-HA-NLS intrabodies were detected by polyclonal rabbit anti-HA IgG followed by rhodamine-conjugated goat anti-rabbit IgG antibodies.
FIGS. 13A-F show stably transfected COS-7 cells expressing α-Nt-HD-C4 sFv-HA-NLS which were further transfected with plasmids encoding either the model altered huntingtin polypeptide with 104 glutamine repeats (FIGS. 13B, D, F) or the model altered DRPLA polypeptide with 81 glutamine repeats (FIGS. 13A, C, E). Both model altered polypeptides were fused to GFP (GFP-HD-Q104 and GFP-DRPLA-Q81, respectively).

T1 sequence (P54259 with tags, fused parts or gaps DUP487-502): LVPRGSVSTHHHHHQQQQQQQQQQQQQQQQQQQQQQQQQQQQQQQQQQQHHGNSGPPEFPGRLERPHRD
GST-HD-25Q, GST-HD-42Q, sequence (as listed by the source): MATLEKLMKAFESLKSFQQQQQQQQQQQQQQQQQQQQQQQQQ
model huntingtin polypeptide (HD-25Q-GFP, pHD-104Q-GFP, HD-Q104-myc, GFP-HD-Q104), sequence (as listed by the source): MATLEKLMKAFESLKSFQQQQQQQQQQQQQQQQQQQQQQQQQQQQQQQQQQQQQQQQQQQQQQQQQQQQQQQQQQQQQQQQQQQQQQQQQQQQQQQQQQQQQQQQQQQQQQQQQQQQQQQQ

B1: C4 sFv: human single-chain Fv intrabody from phage display, specific for the 17 N-terminal residues of huntingtin; SEQ ID NO: 6 (protein)
scFv: QVQLQESGGGLVQPGGSLRLSCAASGFTFSSYSMSWVRQAPGKGLEWVAVISYDGSNKYYADSVKGRFTISRDNSKNTLYLQMNSLRAEDTAVYYCARDRYFDLWGRGTLVTVSSGGGGSGGGGSGGGGSQSALTQPASVSGSPGQSITISCTGTSSDIGAYNYVSWYQQYPGKAPKLLIYDVSNRPSGISNRFSGSKSGDTASLTISGLQAEDEADYYCSSFANSGPLFGGGTKVTVL
In the case of B1, the “HD protein expression level” value [1] is reported as “indistinguishable levels of products”, the “sFv co-purified with GST-DRPLA-Q35” value (GST-DRPLA-35Q) is reported as “not detected” and the “sFv co-purified with antigens containing the Nt-HD sequence” value (GST-HD-25Q, GST-HD-42Q) is reported as “present at about the same intensity as the other proteins”. For the same molecule, the “GFP label and aggregates in dual transfectants” value [2] was “substantial diffuse GFP label, but with only an occasional fluorescent aggregate” and the “retargeting of altered huntingtin polypeptide with 104 glutamines (pHD-104Q-GFP)” value [3] was “can specifically retarget the cellular distribution of the model altered huntingtin polypeptide”.
